B1: Trx-tagged ATG16L1(78 to 247) (domain or fragment, human, UniProt Q676U5 78-247, looked up)
chain: NDNQLQEMAQLRIKHQEELTELHKKRGELAQLVIDLNNQMQRKDREMQMNEAKIAECLQTISDLETECLDLRTKLCDLERANQTLKDEYDALQITFTALEGKLRKTTEENQELVTRWMAEKAQEANRLNAENEKDSRRRQARLQKELAEAAKEPLPVEQDDDIEVIVDET
B2: ATG16L1(124 to 247) (domain or fragment, human, UniProt Q676U5 124-247, looked up)
chain: MQMNEAKIAECLQTISDLETECLDLRTKLCDLERANQTLKDEYDALQITFTALEGKLRKTTEENQELVTRWMAEKAQEANRLNAENEKDSRRRQARLQKELAEAAKEPLPVEQDDDIEVIVDET
B3: Trx-ATG16L1(78 to 197) (domain or fragment, human, UniProt Q676U5 78-197, looked up)
chain: NDNQLQEMAQLRIKHQEELTELHKKRGELAQLVIDLNNQMQRKDREMQMNEAKIAECLQTISDLETECLDLRTKLCDLERANQTLKDEYDALQITFTALEGKLRKTTEENQELVTRWMAE
B4: Trx-tagged ATG16L1(78 to 206) (domain or fragment, human, UniProt Q676U5 78-206, looked up)
chain: NDNQLQEMAQLRIKHQEELTELHKKRGELAQLVIDLNNQMQRKDREMQMNEAKIAECLQTISDLETECLDLRTKLCDLERANQTLKDEYDALQITFTALEGKLRKTTEENQELVTRWMAEKAQEANRLN

Molecular target: the molecule itself
Assay: SEC-MALS

Stoichiometry N, 2:
B1, B2, B3, B4

From PMC9977175 (Science Advances, 2023)
